Laboratory results: PMC10775387 (Research Square, 2023)

Target: T1, EBOV GP1,2 stalk–MPER epitope peptide (aa 626–640) (Ebola virus (EBOV), UniProt Q05320)
T1 chain: IIHDFVDKTLPDQGD
Assay: crystal structure
Conditions: both partners purified

B1: 3A6 Fab (Fab, V domains shown)
VH: EVQLLESGGGLVKPGGSLRLSCAASGFTFNEYMMNWVRQPPGKGLEWVSSISGTSTYINYADSVKGRFTISRDNAKNSLYLQMNSLRSDDTAMYYCARGSTGGYWGQGTLITVSS
VL: DIVMTQTPLSSAVTLGQPASISCRSSQRLVHSDGNTYLSWLHQRPGQPPRLLIYKVSLRFSGVPDRFSGSGAGTDFTLKISRVEAEDVGIYYCMQATQFPLTFGGGTKVEIK
B1: binds.
